B1: BDG38.091 (antibody, V domains shown)
VH: QMQLVESGGGVVQPGRSLTLSCAASGFEFRTYGMHWVRQAPGKGLEWLGVIWYDGSNTHYADSVKGRFTITRDNSKNTLNLQMNSLRVEDTAVYYCVRAPQWYLTAEAFDLWGQGTMVTVSS
VL: SYILTQPPSVSVAPGETATITCGGNLIGSRLVHWYQQKPGQAPVLVIYDDSDRPSRIPERFSGSNIGNTATLTISDVEAGDEADYYCQVWDHYSNHYVFGGGTKLTVL
notes: IgG1
B2: BDG38.110 (antibody, V domains shown)
VH: B1 VH with T19R, L48V, G49A, Y53D, V88A
VL: B1 VL with A18T, T19R, S29A, R30K, S75E, H92Y, Y93S, Y97M
notes: IgG1
B3: BDG38.107 (antibody, V domains shown)
VH: B1 VH with L48V, V88A
VL: B1 VL with E16Q, S29A, S75E, D76R, A79E, H92Y, Y93S, N95D, H96S
notes: IgG1
B4: BDG38.115 (antibody, V domains shown)
VH: B1 VH with V88A
VL: B1 VL with E16Q, S29A, I66S, A79E, H92Y, Y93S, H96T
notes: IgG1
B5: BDG38.098 (antibody, V domains shown)
VH: B1 VH with L48V, G49A, Y53D, H59V
VL: B1 VL with I3V, E16Q, S29A, D76R, H92Y, Y93S, N95D, H96S, Y97M
notes: IgG1
B6: BDG38.086 (antibody, V domains shown)
VH: B1 VH with T19R, L48V, V88A
VL: B1 VL with I3V, E16Q, T19R, S29A, I47V, A79E, H92Y, Y93S, H96T
B7: BDG38.120 (antibody, V domains shown)
VH: B1 VH with T19R, L48V, G49A, Y53D, V88A
VL: B1 VL with S29A, I66S, H92Y, Y93S, N95D, Y97M
B8: BDG38.134 (antibody, V domains shown)
VH: B1 VH with R16Q, T19R, G49A, V88A, L104N, T105S
VL: SYVLTQPPSVSVAPGQTARITCGGNLIGARLVHWYQQKPGQAPVLVIYDDSDRPSHIPERFSGSNSGNTATLTISRVEAGDEADYYCQVWDYSADTMVFGGGTKLTVL
notes: IgG1
B9: BDG38.118 (antibody, V domains shown)
VH: B1 VH with T19R, L48V, N57A
VL: B1 VL with S29A, A79E, H92Y, Y93S, N95D
notes: IgG1
B10: BDG38.127 (antibody, V domains shown)
VH: B1 VH with L48V, N57A, V88A, V97A
VL: B1 VL with S29A, R30K, H92Y, N95D, H96T
notes: IgG1
B11: BDG38.133 (antibody, V domains shown)
VH: B1 VH with T19R, L48V, G49A, Y53D, V88A
VL: B1 VL with S29A, D76R, H92Y, Y93S, N95D, H96T
B12: BDG38.123 (antibody, V domains shown)
VH: B1 VH with T19R, L48V, G49A, Y53D, V88A
VL: B1 VL with S29A, H92Y, Y93S, N95D, H96T
B13: BDG38.124 (antibody, V domains shown)
VH: B1 VH with T19R, L48V, Y53D, V88A
VL: B1 VL with S29A, H92Y, Y93S, N95D, H96T
B14: BDG38.122 (antibody, V domains shown)
VH: B1 VH with T19R, L48V, G49A, Y53D, V88A
VL: B1 VL with S29A, D76R, A79E, H92Y, Y93S, N95D, H96S
B15: BDG38.142 (antibody, V domains shown)
VH: B1 VH with L48V, G49A, Y53D, V88A
VL: SYILTQPPSVSVAPGQTATITCGGNLIGAKLVHWYQQKPGQAPVLVVYDDSDRPSRIPERFSGSNIGNTATLTIERVEEGDEADYYCQVWDYYSHTMVFGGGTKLTVL
B16: BDG38.143 (antibody, V domains shown)
VH: B1 VH with T19R, L48V, Y53D, N57A
VL: B15 VL with N25A, K30R, V47I, E75S, Y93S, H95N, M97Y
B17: BDG38.136 (antibody, V domains shown)
VH: B1 VH with T19R, G49A, V88A, L104N, T105S
VL: B8 VL with R30K, A94S
B18: BDG38.141 (antibody, V domains shown)
VH: B1 VH with T19R, L48V, G49A, Y53D, V88A
VL: B1 VL with N25A, A79E, H92Y, Y97M
B19: BDG38.130 (antibody, V domains shown)
VH: B1 VH with E28A, L48V, G49A, Y53D
VL: B1 VL with S29A, S75E, D76R, H92Y, Y93S, H96S

Changes are numbered by the printed parent chain.

In the first assay the target is T1, recombinant human IL-13 (human, UniProt P35225 35-146).
T1 construct: also called rh-IL-13; hIL-13
T1 sequence (P35225 35-146 limits assumed): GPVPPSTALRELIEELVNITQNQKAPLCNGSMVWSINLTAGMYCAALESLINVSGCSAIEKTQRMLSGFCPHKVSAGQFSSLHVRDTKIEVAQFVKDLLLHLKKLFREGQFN
Kind of assay: SPR. A general note: In SPR one partner is held on a chip, and binding of the other changes the refractive index at the surface.
As for B1, the equilibrium dissociation constant (Kd) (as a rule, the free concentration of one partner at which half of the binding sites on the other are occupied at equilibrium, for simple one-to-one binding) stood at 0.0604 nM; the off-rate constant (koff) – broadly, a measure of how fast the partners let go of each other – worked out at 0.000216 s⁻¹; the association rate constant (kon) (commonly the second-order rate constant of association) turned out to be 3.57e+06 M⁻¹ s⁻¹.
As for B2, the Kd worked out at 0.0742 nM, the koff is 0.000427 s⁻¹ and the kon is 5.75e+06 M⁻¹ s⁻¹.
As to B3, the Kd came to 0.00274 nM, the koff came out at 2.02e-05 s⁻¹ and the kon was 7.36e+06 M⁻¹ s⁻¹.
In the case of B4, the Kd was found to be 0.125 nM, the koff was 0.000455 s⁻¹ and the on-rate constant (kon) was found to be 3.63e+06 M⁻¹ s⁻¹.
Take B5: the Kd was 0.0239 nM, the koff is 0.000138 s⁻¹ and the kon was 5.8e+06 M⁻¹ s⁻¹.

For the next assay, the target named is T2, human TSLP (human, UniProt Q969D9 29-159).
T2 construct: also called hTSLP; rhTSLP
Nature of the assay: SPR.
B1 yielded an equilibrium dissociation constant (Kd) of 0.0621 nM, a koff of 8.67e-05 s⁻¹ and a kon of 1.4e+06 M⁻¹ s⁻¹.
In the same order, the values of B2 are 0.129 nM, 0.000298 s⁻¹ and 2.31e+06 M⁻¹ s⁻¹.
Molecule B3 showed a Kd of 0.151 nM, an off-rate constant (koff) of 8.16e-05 s⁻¹ and a kon of 541000 M⁻¹ s⁻¹.
B4 displayed an equilibrium dissociation constant (Kd) of 0.84 nM, a koff of 0.000532 s⁻¹ and an on-rate constant (kon) of 634000 M⁻¹ s⁻¹.
In turn, B5 displayed an equilibrium dissociation constant (Kd) of 0.0275 nM, a koff of 0.000237 s⁻¹ and a kon of 8.6e+06 M⁻¹ s⁻¹.

Another assay concerns the target hTSLP-His (human, UniProt Q969D9 29-159, limits assumed). Nature of the assay: cell-based or functional assay.
As to B1, the “IC50 [pM], STAT5 phosphorylation inhibition in MUTZ5 cells” value turned out to be 0.507 pM.
The same measure, in the same setting: with B6 the figure was 830 pM.
Take B7: the “IC50 [pM], STAT5 phosphorylation inhibition in MUTZ5 cells” value was determined as 0.232 pM.
The same measure, in the same setting: with B8 the figure was 32 pM; with B2, 0.295 pM.
As for B3, the “IC50 [pM], STAT5 phosphorylation inhibition in MUTZ5 cells” value worked out at 0.508 pM.
On the same count and under the same terms, with B4 the figure was 300 pM; with B5, 68.8 pM; with B9, 0.688 pM.
The same measure, in the same setting: with B10 the figure was 0.143 pM.

Another assay has as its target T1, recombinant human IL-13. Kind of assay: SPR. The source holds these as a separate data set.
As to B8, the dissociation constant (Kd) came to 0.507 nM, the dissociation rate constant (koff) is 0.00156 s⁻¹ and the on-rate (kon) turned out to be 3.07e+06 M⁻¹ s⁻¹.
For the molecule B9, the dissociation constant (Kd) was found to be 0.0157 nM, the koff came to 6.7e-05 s⁻¹ and the association rate constant (kon) is 4.27e+06 M⁻¹ s⁻¹.
Turning to B10, the Kd worked out at 0.00847 nM, the koff is 5.01e-05 s⁻¹ and the kon was 5.91e+06 M⁻¹ s⁻¹.

For another assay, the target named is T2, human TSLP. Nature of the assay: SPR. This is another data set of the same source.
With B8, the dissociation constant (Kd) came to 0.00858 nM, the koff came out at 4.17e-05 s⁻¹ and the on-rate (kon) came out at 4.86e+06 M⁻¹ s⁻¹.
The molecule B9 returned a Kd of 0.964 nM, a koff of 0.00043 s⁻¹ and an association rate constant (kon) of 446000 M⁻¹ s⁻¹.
B10 registered a dissociation constant (Kd) of 0.991 nM, an off-rate constant (koff) of 0.000427 s⁻¹ and an association rate constant (kon) of 431000 M⁻¹ s⁻¹.

In a further assay the target is T1, recombinant human IL-13. Nature of the assay: cell-based or functional assay.
On to B1, for which the “HEK-IL-13 [nM] (IC50, STAT6 reporter)” value stood at 0.0832 nM.
Still for that read-out and setting: with B6 the figure was 0.0174 nM; with B7, 0.265 nM; with B11, 0.029 nM.
Still for that read-out and setting: with B12 the figure was 0.044 nM.
As for B13, the “HEK-IL-13 [nM] (IC50, STAT6 reporter)” value came to 0.0523 nM.
The same measure, in the same setting: with B14 the figure was 0.079 nM; with B15, 0.0584 nM; with B16, 0.0438 nM.
Still for that read-out and setting: with B17 the figure was 0.151 nM; with B18, 0.0824 nM.
On to B8, for which the “HEK-IL-13 [nM] (IC50, STAT6 reporter)” value amounted to 0.271 nM.
With B19, the “HEK-IL-13 [nM] (IC50, STAT6 reporter)” value came to 0.0646 nM.
Same read-out and setting: with B2 the figure was 0.0299 nM; with B3, 0.0943 nM.
As to B4, the “HEK-IL-13 [nM] (IC50, STAT6 reporter)” value is 0.0664 nM.
The same measure, in the same setting: with B5 the figure was 0.0884 nM.
Regarding B9, the “HEK-IL-13 [nM] (IC50, STAT6 reporter)” value was determined as 0.0804 nM.
Still for that read-out and setting: with B10 the figure was 0.044 nM.

The record behind these values is patent US20240059769A1 (BIOLOJIC DESIGN, published 2024).
